Laboratory results reported in patent publication US20250188154A1.

Experiments:
[1] = target: SARS-CoV-2 spike D614G on pseudovirus (VRC7480.D614G) (SARS-CoV-2) (UniProt P0DTC2); assay: cell-based or functional assay
[2] = target: SARS-CoV-2 D614G live virus spike (SARS-CoV-2) (UniProt P0DTC2); assay: cell-based or functional assay

| Substance | Pseudovirus IC50 [1] [µg/mL] | Pseudovirus IC80 [1] [µg/mL] | Pseudovirus MPI [1] [%] | Pseudovirus neutralization IC50 [1] [µg/mL] | Pseudovirus neutralization IC80 [1] [µg/mL] | Pseudovirus neutralization MPI [1] [%] | live virus neutralization IC50 [2] [µg/mL] |
| --- | --- | --- | --- | --- | --- | --- | --- |
| DH1042 (antibody) | 0.011 | 0.053 | 100 | 0.011 | 0.053 | 100 | – |
| DH1047 (antibody) | – | – | – | 0.09 | 0.36 | 100 | 0.059 |
